{"source": "patent US20230129258A1", "about": "(Bicycle, published 2023)", "key": {"[1]": {"molecular_target": "Nectin-3 (3064-N3, R&D Systems) (UniProt Q9NQS3 58-404, limits assumed, biotinylated)", "sequence (Q9NQS3 58-404 limits assumed)": "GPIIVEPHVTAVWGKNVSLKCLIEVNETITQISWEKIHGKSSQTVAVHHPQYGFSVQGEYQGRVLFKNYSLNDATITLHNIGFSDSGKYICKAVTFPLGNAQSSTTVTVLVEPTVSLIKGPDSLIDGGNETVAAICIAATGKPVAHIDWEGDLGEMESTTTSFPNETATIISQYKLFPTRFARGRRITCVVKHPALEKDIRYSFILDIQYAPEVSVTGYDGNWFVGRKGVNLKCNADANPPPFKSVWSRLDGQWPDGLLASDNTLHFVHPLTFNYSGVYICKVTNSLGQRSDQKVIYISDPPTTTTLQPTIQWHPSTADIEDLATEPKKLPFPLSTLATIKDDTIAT", "assay": "SPR, biotinylated target on streptavidin surface"}, "[2]": {"molecular_target": "T1, Nectin-like-2 (3519-S4-050, R&D Systems) (UniProt Q9BY67 45-374, biotinylated)", "T1 sequence (looked up)": "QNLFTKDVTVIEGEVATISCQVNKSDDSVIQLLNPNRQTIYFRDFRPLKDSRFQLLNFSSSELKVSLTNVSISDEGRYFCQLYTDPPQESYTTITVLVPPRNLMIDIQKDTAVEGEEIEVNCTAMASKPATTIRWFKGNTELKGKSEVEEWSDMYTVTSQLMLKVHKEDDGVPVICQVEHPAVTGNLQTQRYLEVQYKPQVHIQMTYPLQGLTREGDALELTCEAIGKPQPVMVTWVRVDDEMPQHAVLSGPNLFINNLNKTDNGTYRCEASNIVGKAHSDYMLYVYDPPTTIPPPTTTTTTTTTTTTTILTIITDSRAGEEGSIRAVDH", "assay": "SPR, biotinylated target on streptavidin surface"}, "[3]": {"molecular_target": "T2, Nectin-like-4 (4164-S4, R&D Systems) (UniProt Q8NFZ8 21-324, biotinylated)", "T2 sequence (looked up)": "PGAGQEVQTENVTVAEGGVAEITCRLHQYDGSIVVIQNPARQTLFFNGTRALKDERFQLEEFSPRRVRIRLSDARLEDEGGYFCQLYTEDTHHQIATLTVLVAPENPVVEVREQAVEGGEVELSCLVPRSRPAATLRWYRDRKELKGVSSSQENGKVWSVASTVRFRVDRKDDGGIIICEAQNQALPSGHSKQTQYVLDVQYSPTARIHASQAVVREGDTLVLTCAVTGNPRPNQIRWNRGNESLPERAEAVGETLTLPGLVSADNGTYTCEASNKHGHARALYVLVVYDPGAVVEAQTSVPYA", "assay": "SPR, biotinylated target on streptavidin surface"}, "[4]": {"molecular_target": "T3, human Nectin-4 extracellular domain (human, UniProt Q96NY8 32-349, biotinylated where captured on the streptavidin chip)", "T3 construct": "extracellular domain; also called Nectin-4 (human); Biotinylated - Nectin-4 extracellular domain", "T3 sequence (looked up)": "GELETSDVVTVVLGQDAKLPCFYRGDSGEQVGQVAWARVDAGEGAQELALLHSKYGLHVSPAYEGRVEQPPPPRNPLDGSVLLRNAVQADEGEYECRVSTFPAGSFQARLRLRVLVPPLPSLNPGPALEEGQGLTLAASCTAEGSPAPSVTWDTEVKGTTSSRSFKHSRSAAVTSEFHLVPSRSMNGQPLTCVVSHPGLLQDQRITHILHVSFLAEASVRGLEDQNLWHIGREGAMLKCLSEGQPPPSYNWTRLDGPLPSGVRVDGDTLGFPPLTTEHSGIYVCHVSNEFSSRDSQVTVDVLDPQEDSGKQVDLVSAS", "assay": "SPR, direct binding of BCY11863 to immobilized human Nectin-4, 1:1 fit"}, "[5]": {"molecular_target": "T4, rat Nectin-4 extracellular domain (rat, UniProt D3ZET1 31-348, biotinylated where captured on the streptavidin chip)", "T4 construct": "extracellular domain", "T4 sequence": "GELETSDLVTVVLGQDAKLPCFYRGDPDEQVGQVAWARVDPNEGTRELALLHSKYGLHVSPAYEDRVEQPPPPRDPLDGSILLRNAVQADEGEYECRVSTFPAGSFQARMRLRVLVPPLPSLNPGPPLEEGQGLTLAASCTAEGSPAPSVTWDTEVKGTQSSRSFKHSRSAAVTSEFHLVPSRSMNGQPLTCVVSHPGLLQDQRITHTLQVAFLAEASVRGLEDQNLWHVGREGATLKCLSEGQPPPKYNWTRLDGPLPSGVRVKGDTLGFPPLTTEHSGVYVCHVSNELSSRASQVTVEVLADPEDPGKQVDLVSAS", "assay": "SPR direct binding, biotinylated Nectin-4 ECD on streptavidin chip, 25° C., n = 6"}, "[6]": {"molecular_target": "T5, cyno (NHP) CD137 extracellular domain (cyno (NHP), UniProt A9YYE7 24-186)", "T5 construct": "extracellular domain", "T5 sequence (A9YYE7 entry or part of it)": "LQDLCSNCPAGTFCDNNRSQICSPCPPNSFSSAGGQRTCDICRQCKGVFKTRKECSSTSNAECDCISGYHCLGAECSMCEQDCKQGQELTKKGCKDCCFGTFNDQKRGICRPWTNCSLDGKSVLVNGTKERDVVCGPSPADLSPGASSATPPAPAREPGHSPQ", "assay": "SPR dual binding, BCY11863 captured on biotinylated human Nectin-4, soluble CD137 ECD passed over, n = 3"}, "[7]": {"molecular_target": "T6, human CD137 extracellular domain (human, UniProt Q07011 24-186, biotinylated where captured on the streptavidin chip)", "T6 construct": "extracellular domain; Section 17 says only 'Recombinant human CD137 (R&D systems)'; also called CD137 (human); Recombinant human CD137 (R&D systems)", "T6 sequence (Q07011 24-186)": "as the sequence (A9YYE7 entry or part of it) above, with L4P, S19N, K50R, I66T, S67P, Y69F, E75G, A149V counted along it", "assay": "SPR, direct binding of BCY11863 to immobilized human CD137, 1:1 fit; avidity from two CD137 bicycles"}, "[8]": {"molecular_target": "T6, human CD137 extracellular domain", "assay": "SPR, direct binding of BCY11863 to immobilized human CD137, 1:1 fit; the text says the reported KD may be an overestimation (avidity)"}, "[9]": {"molecular_target": "T6, human CD137 extracellular domain", "assay": "SPR, direct binding of BCY11863 to immobilized human CD137, 1:1 fit; the text calls the off rate very slow (avidity from two CD137 bicycles)"}}, "note": "Starred links: 1 amine or outer side, 2 acyl side, 3 side chain; linkers in the order of their positions; H or OH if unused. Positions of bridges follow the written chain, without caps; N, C: chain ends. Non-standard residues stand in square brackets, D forms with d. Chains are numbered I, II in the order given. No end group written: not given here. dLys(PYA) = D-lysine Nε-acylated with 4-pentynoic acid, clicked (triazole) to the linker azide, O=C(CCc1cn([*:3])nn1)NCCCC[C@@H](N[*:1])C(=O)[*:2]; TATA = O=C(CC[*:1])N1CN(C(=O)CC[*:2])CN(C(=O)CC[*:3])C1; 1Nal = N[C@@H](Cc1cccc2ccccc12)C(=O)O; Hyp = O=C(O)[C@@H]1C[C@@H](O)CN1; hArg = N=C(N)NCCCC[C@H](N)C(=O)O; tBuAla = CC(C)(C)C[C@H](N)C(=O)O; Nle = CCCC[C@H](N)C(=O)O"}
{"binder": "heterotandem bicyclic peptide complex BCY11863 (linker I:1-I:5-I:15, II:1-II:8-II:15 via TATA; not fully specified (bridges); also: 1:2 complex: BCY8116 + 2x BCY8928, also called Nectin-4/CD137 heterotandem) peptide 1: CP[1Nal][dD]CM[hArg]DWSTP[Hyp]WC peptide 2: Ac-C[tBuAla]PE[dLys(PYA)]PYCFADPY[Nle]CA", "values": [{"measurement": "binding result", "setting": "[1]", "value": "no binding (tested: 5000 nM)"}, {"measurement": "binding result", "setting": "[2]", "value": "no binding (tested: 5000 nM)"}, {"measurement": "binding result", "setting": "[3]", "value": "no binding (tested: 5000 nM)"}, {"measurement": "koff", "setting": "[4]", "value": 0.00229, "unit": "s⁻¹"}, {"measurement": "kon", "setting": "[4]", "value": 561000, "unit": "M⁻¹ s⁻¹"}, {"measurement": "Kd", "setting": "[5]", "value": 15, "unit": "nM"}, {"measurement": "Kd", "setting": "[6]", "value": 18, "unit": "nM"}, {"measurement": "kon", "setting": "[7]", "value": 952000, "unit": "M⁻¹ s⁻¹"}, {"measurement": "Kd", "setting": "[8]", "value": 0.368, "unit": "nM"}, {"measurement": "koff", "setting": "[9]", "value": 0.00035, "unit": "s⁻¹"}]}
